We go through 11 sequences from the DeepSol protein solubility set.

The nature of this series: soluble on expression in E. coli; label from the status in PepcDB or PDB records.
Regarding “KLKDIAKKILVGGEKPSDFQKEKDQVYKYPILSNSRKADDFLGYSKTFRIAEKSITVSARGTIGAVFYRDFSYLPAVSLICFIPKPEFNINFLFHALKATKFHKQGSGTGQLTMAQFKEYQVYIPSLKKQQEIAATLDP”, the “soluble on expression in E. coli” value was “soluble”.

With “MGSDKIHHHHHHMIRIGIDVGGTNTDAVVMDGTQVVAGVKSATTADVMSGVVNALKDVLAASRMAASAVDVVMIGTTHFTNAVVQRRDLAPTAAVRLGLPATASLPPMVDWPEDLKTAIGNHAWLAHGGNEFDGRVISPLNEEELLGIAAEIKVRGINSIAITSVLSPVSNEFEKRAAEIFAKALPGAHITLSSDIGRIGLLERENAAIMNACLRDLSAHVIEAFRKAIAETGIRGRFFLTQNDGTLMDAAFAEKFPVLTFASGPTNSMRGAAFLSGVDDAIVVDIGGTTSDVGSLQNGFPRQATVAVEVGGVRTNFRMPDVFSIGLGGGSLVVDGEHGVKVGPTSVGYRINTEALIFGGETLTTTDITVAAGNAELGDKARVAQLPKDLLDRTQAKILSMLEDCVERSRLSPDPLPVIVVGGGSILVNGPIGGLEVIKPNYFGVANAVGAAIAQVSGEIDRVYALAEIGRDQALDDAKARAIDAAVAAGASRDSVEIVDVEDVPLAYLPGNATRVRVKAVGELHVA”, the “soluble on expression in E. coli” value is “not soluble”.

“MGSDKIHHHHHHMATPETILSVKDLRVRFRTLDGAVEAVKGINIHVNAGETVAVVGESGSGKSQTMMAAMSLLASNGEATGSVDYRGRNLLTLSKSDLNKVRGAKISMIFQEPMTSLDPLYSIGNQLIEPIRRHRGLNAAEAREEALKLLRLVHIPDPERRMKSYPHEMSGGQRQRVMIAMALANDPDILIADEPTTALDVTIQAQILMLLAELQRKLGMAIVFITHDLGIVRRFADRVYVMRQGEVVEEGEAGAIFANPQHAYTKMLLAAEPTGSKAAPPANAPVVLEGRHVEVTFKIGGGFLAGEPLMLRAVDDISIRLQRNQTIGIVGESGSGKSTLGRALLRLLPSDGLIRFGDRDISTADRQAMRPLRRQMQLVFQDPFGSLSPRMTVGQVITEGLLVHEPNLSGKQRDQRAVEALREVGLDPNARNRYPHEFSGGQRQRIAIARAMILKPKMVVLDEPTSALDRSVQKQIVELLRKLQADHELSYLFISHDLSVVRAMADYIIVMKQGKIVEEGPTEAIFSNPQHVYTQTLMAAAIDVTRFRLSA”: the “soluble on expression in E. coli” value was “not soluble”.

Consider “MEQAPPDPEKLLQPGPLEPLGGPGAVLEAAVGEENEGTREDGSGVDTMTGNNFWLKKIEISVSEAEKRTGRNAVNMQETYTAYLIETRSVEHADGQSVLTDSLWRRYSEFELLRNYLLVYYPHVVVPPLPEKRAEFVWHKLSADNMDPDFVERRRVGLENFLLRVASHPVLCRDKIFYSFLTQEGNWKETVNETGFQLKADSRLKALNATFRVKNPDKRFTELRHYSDELQSVISHLLRVRARVADRLYGVYKVHGNYGRVFSEWSAIEKEMGDGLQSAGHHMDVYASSIDDILEDEEHYADQLKEYLFYAEALRAVCRKHELMQYDLETAAQDLAAKKQQCEELATGTVRTFSLKGMTTKLFGQETPEQREARIKVLEEQINEGEQQLKSKNLEGREFVKNAWADIERFKEQKNRDLKEALISYAVMQISMCKKGIQVWTNAKECFSKM”, for which the “soluble on expression in E. coli” value is “soluble”.

“MGSDKIHHHHHHMALPVLICDDSAMARKQMARTLPKDWDVDITFATNGAEGLEAIRAGKGEVVFLDLNMPVMDGYEVLQTIQQQDLPALVIVVSGDIQIKAHERVKALGALDFIQKPVSAEAIAGILQEYGILVPGEGEGDEAEDNPLLKVDMRDACQEIANVAMGRAADLLAKLLDVFVVLPIPNVNVLEVSELTMALKATETSAKVTALCQGFIGAGVAGEALLLFHDSSFQDMAKLMKLDGPGDEATEVEVLIDTGNVLIGAFLNGIAEQLDMHFSQAHPVVLGRHCTVNDLIHDNAEKWHRTLAMEINYRIEDHNIECDLLLLFTEDSLPTLNYKLGYMLDTD”: the “soluble on expression in E. coli” value is given as “not soluble”.

With “MSLIYTGRPMLGTERIRGLTIKIFLPLMELLGRVMGVGREEVRHSFIKVNNELVRSRGGRYTPDELLILVPHCLQSSRCEIRLTYDMNHCKRCGKCPIRDLLALRDRYGVSLAIATGGTIARRIVVQTRPKLIIAVACERDLASGIQDTHPIPVYGVLNERPNGPCLDTLVPMQRLEAALRHFLRDVPVSAGGAPDESRRGRDAAAAFGKAQGPECRVTQGSSQRRGSDGEGHHHHHH”, the “soluble on expression in E. coli” value was “not soluble”.

With “MSDIFNSPQNKASILTALMKSTTGDVEDVLIPKRFRPAKDPLDSPQAAAQFLKDNKYRILRPRAIPTMVELETDAALPRLRQMVEDGKLKDTVSVPEGTTAFYPKYYPFHKPDHDEVGTFGAPDITLLKQLTFFLLENDFPTGPETLRQVREAIATLQYGSGSYSGQLNRLLAMKGVATGRNPNKTPKTVGYTNEQLAKLLEQTLPINTPKHEDPDLRWAPSWLINYTGDLSTDKSYLPHVTIKSSAGLPYIGKTKGDTTAEALVLADSFIRDLGRAATSADPEAGVKKTITDFWYLSCGLLFPKGERYTQVDWDKKTRNIWSAPYPTHLLLSMVSTPVMNESKLNITNTQTPSLYGFSPFHGGMDRIMTIIRDSLDNDEDLVMIYADNIYILQDNTWYSIDLEKGEANCTPQHMQAMMYYLLTRGWTNEDGSPRYNPTWATFAMNVAPSMVVDSSCLLMNLQLKTYGQGSGNAFTFLNNHLMSTIVVAEWVKAGKPNPMTKEFMDLEEKTGINFKIERELKNLRETIVEAVETAPQDGYLADGSDLPPIRPGKAVELDLLGWSAIYSRQMEMFVPVLENERLIASAAYPKGLENKALARKPGAEIAYQIVRYEAIRLVGGWNNPLLETAAKHMSLDKRKRLEVKGIDVTGFLDDWNNMSEFGGDLEGITLSEPLTNQTLVDINTPLDSFDPKARPQTPRSPKKTLDEVTTAITSGTYKDPKSAVWRLLDQRTKLRVSTLRDQALALKPASSSVDNWAEATEELAQQQQLLMKANNLLKSSLTETREALETIQSDKIIAGKSNPEKNPGTAANPVVGYGEFSEKIPLTPTQKKNAKRREKQRRNQ”, the “soluble on expression in E. coli” value was “not soluble”.

As for “MKKKIESYQGAAGGWGAVKSVANAVRKQMDIRQDVIAMFDMNKPEGFDCPGCAWPDPKHSASFDICENGAKAIAWEVTDKQVNASFFAENTVQSLLTWGDHELEAAGRLTQPLKYDAVSDCYKPLSWQQAFDEIGARLQSYSDPNQVEFYTSGRTSNEAAFLYQLFAREYGSNNFPDCSNMCHEPTSVGLAASIGVGKGTVLLEDFEKCDLVICIGHNPGTNHPRMLTSLRALVKRGAKMIAINPLQERGLERFTAPQNPFEMLTNSETQLASAYYNVRIGGDMALLKGMMRLLIERDDAASAAGRPSLLDDEFIQTHTVGFDELRRDVLNSEWKDIERISGLSQTQIAELADAYAAAERTIICYGMGITQHEHGTQNVQQLVNLLLMKGNIGKPGAGICPLRGHSNVQGDRTVGITEKPSAEFLARLGERYGFTPPHAPGHAAIASMQAICTGQARALICMGGNFALAMPDREASAVPLTQLDLAVHVATKLNRSHLLTARHSYILPVLGRSEIDMQKNGAQAVTVEDSMSMIHASRGVLKPAGVMLKSECAVVAGIAQAALPQSVVAWEYLVEDYDRIRNDIEAVLPEFADYNQRIRHPGGFHLINAAAERRWMTPSGKANFITSKGLLEDPSSAFNSKLVMATVRSHDQYNTTIYGMDDRYRGVFGQRDVVFMSAKQAKICRVKNGERVNLIALTPDGKRSSRRMDRLKVVIYPMADRSLVTYFPESNHMLTLDNHDPLSGIPGYKSIPVELEPSN”, the “soluble on expression in E. coli” value is reported as “not soluble”.

For “MSLGFAGDGKTYTASELAIGLVMLMRQRGIEAGNRPVMFLDTETGSDWVKPRFDAENIELFTAKTRSFVDLLEAINEAESSGSVMIIDSISHFWTGLCDEYARRRNRKRGLEFSDWAWLKQEWRRFTDRFVNSQAHIIMCGRAGYEYDFFEGDDGKRQLAKTGIKMKAETETGYEPSIRIQMEKQMNIETGQVWRTARILKDRSTRIDGQVFSNPTFKNFLPHIESLNLGGEHPGIDTSRDNSELFANDGTPTWLKEKRAKEIALDEIIELLNKHHGGTSNDAKRAKADLLEKTFTSRSWERIKGMDWPTIKAGRNALWIELEGVEYAFPDEGHHHHHH”, the “soluble on expression in E. coli” value is on record as “soluble”.

As to “STGKAKPKKHTAKELQAKADAALTNRGGGKAGLADRTGKEKGGHAKYECPHCKITVPDLKTMQIHHESKHPKLTYEEPRNLHEALAAPAESSKPKPGIRGSLKK”, the “soluble on expression in E. coli” value was “soluble”.

Regarding “MASGVTVNDEVIKVFNDMKVRKSSTPEEIKKRKKAVLFCLSDDKKQIIVEEAKQILVGDIGDTVEDPYTAFVKLLPLNDCRYALYDATYETKESKKEDLVFIFWAPESAPLKSKMIYASSKDAIKKKFTGIKHEWQVNGLDDIKDRSTLGEKLGGNVVVSLEGKPL”, the “soluble on expression in E. coli” value is recorded as “soluble”.
